In article PMC6787100, “Endophyte Bacillus subtilis evade plant defense by producing lantibiotic subtilomycin to mask self-produced flagellin” (Communications Biology, 2019):

B1: ∆Hag (flg22), Hag with the flg22 region deleted (domain or fragment)
chain: not shown
B2: 6× His-tagged Hag protein (natural protein)
chain: not shown
modifications: labelled with Cy5-NHS ester (in the MST assay only)

Target: T1, lantibiotic subtilomycin (Bacillus subtilis BSn5, lantibiotic; ApnB carries out the essential dehydration reaction of its biosynthesis; the modified residues are not listed)
T1 construct: subtilomycin, the lantibiotic made from the structural peptide encoded by apnA of Bacillus subtilis BSn5; exact molecular weight 3234.36 Da; Purified subtilomycin holds oligomers (trimers, tetramers, pentamers); source: B. subtilis BSn5 ∆hag mutant, 30% ammonium sulfate precipitate of culture supernatant, purified by prep-HPLC; also native in Apn5 (30% ammonium sulfate precipitate of BSn5 culture …)
Test: MST; protein labelled with Cy5-NHS ester at fixed concentration, serial 2x dilutions of unlabelled subtilomycin (1 mM set as highest; 500 μM highest final in the legend); PBS pH 8.0; MST power 20%, LED power 60%; Monolith NT.115; constants called ambiguous, based on total subtilomycin concentration
Details: both partners purified

Binder	Kd
B1	66.4 ± 9.11 µM
EKLSSGLRINRAGDDAAGLAIS [flg22 (Bs), synthetic flg22 peptide of B. subtilis Hag]	169 ± 10.4 µM
B2	18.8 ± 4.15 µM
